Literature values, collected in publication PMC3966486.
Each block holds one substance with its values, some of them ahead of it.

Tests used:
His30 [1] = target: His30 (UniProt position 58, LSAYIHNLSSE); details: unbound (free) monomer, not in the hormone-receptor complex
His180 = His180 (UniProt position 208, LRRDSHKIDNY); details: unbound (free) monomer, not in the hormone-receptor complex
[2] = target: human prolactin receptor extracellular domain (hPRLr-ECD), wild type (UniProt P16471); details: pH
Chain of human prolactin receptor extracellular domain (hPRLr-ECD), wild type (P16471 whole entry, the tested form may be a part): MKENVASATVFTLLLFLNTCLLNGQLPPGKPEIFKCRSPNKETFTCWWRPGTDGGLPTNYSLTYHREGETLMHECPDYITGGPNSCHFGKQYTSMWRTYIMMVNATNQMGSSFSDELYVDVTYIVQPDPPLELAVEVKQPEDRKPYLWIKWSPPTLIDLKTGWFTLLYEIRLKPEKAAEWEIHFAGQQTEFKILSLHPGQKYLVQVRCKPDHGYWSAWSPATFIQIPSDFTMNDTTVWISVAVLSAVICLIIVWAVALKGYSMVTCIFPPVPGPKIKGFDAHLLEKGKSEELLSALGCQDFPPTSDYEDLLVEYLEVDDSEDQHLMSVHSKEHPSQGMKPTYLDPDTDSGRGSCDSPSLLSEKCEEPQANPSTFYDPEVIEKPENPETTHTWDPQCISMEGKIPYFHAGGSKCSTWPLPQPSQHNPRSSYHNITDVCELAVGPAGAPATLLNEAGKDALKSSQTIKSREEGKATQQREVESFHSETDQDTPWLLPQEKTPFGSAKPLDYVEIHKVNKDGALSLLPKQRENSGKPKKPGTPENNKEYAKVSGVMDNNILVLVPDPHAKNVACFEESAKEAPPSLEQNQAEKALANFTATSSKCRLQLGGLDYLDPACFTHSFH

His30 [3] = target: His30 (UniProt position 58, LSHYIHNLSSE); details: unbound (free) monomer, not in the hormone-receptor complex
His27 [4] = target: His27 (UniProt position 55, AVVLSHYIHNL); details: unbound (free) monomer, not in the hormone-receptor complex
[5] = target: human prolactin receptor extracellular domain (hPRLr-ECD), wild type (UniProt P16471); details: pH; remark: listed apart in the source
His188 = His188 (UniProt position 212, RCKPDHGYWSA); details: unbound (free) monomer, not in the hormone-receptor complex
His27 [6] = target: His27 (UniProt position 55, AVVLSHYIANL); details: unbound (free) monomer, not in the hormone-receptor complex
[7] = target: human prolactin receptor extracellular domain (hPRLr-ECD), wild type (UniProt P16471); details: pH; remark: listed apart in the source

Substance: Prolactin (hPRL) H27A (Homo sapiens; H27A)
pKa (His30 [1]): 6.5
pKa (His180): 6.2

pKa, His27 of hPRL H180A [2]: 6.8 pH units
pKa, His30 of hPRL H180A [2]: 6.7 pH units
Substance: human prolactin H180A H180A

Substance: Prolactin (hPRL) (Homo sapiens)
pKa (His30 [3]): 6.3
pKa (His180): 6.1
pKa (His27 [4]): 6.7

pKa, His27 of hPRL H30A [5]: 6.9 pH units
pKa, His180 of hPRL H30A [5]: 6.3 pH units
Substance: human prolactin H30A H30A

Substance: Prolactin receptor extracellular domain (hPRLr-ECD) (Homo sapiens)
pKa (His188): 7.7

Substance: Prolactin (hPRL) H180A (Homo sapiens; H180A)
pKa (His30 [3]): 6.7
pKa (His27 [4]): 6.8

Substance: Prolactin (hPRL) H30A (Homo sapiens; H30A)
pKa (His27 [6]): 6.9
pKa (His180): 6.3

pKa, His30 of hPRL H27A [7]: 6.5 pH units
pKa, His180 of hPRL H27A [7]: 6.2 pH units
Substance: human prolactin H27A H27A
